This note sets out measurements from patent publication US20020025510A1, “Screening methods based on superactivated alpha V beta 3 integrin” (priority 2000, published 2002).

Assay [1] relates to β3 integrin subunit. Put plainly: Immunoprecipitation and Western blotting of the β3 integrin subunit from surface-biotinylated cells. Type of assay: cell-based, human. The settings on record: cells incubated with 50 μM for 48 hours; precipitated with mAb L230; 90 kDa without inhibitor. The procedure: Immunoprecipitation and Western blotting were performed as follows. Confluent cells were surface biotinylated with 0.1 mg/ml of Sulfo-NHS-LC-Biotin (Pierce, Rockford, Ill.). Where indicated, the cells were incubated prior to biotinylation with 50 μM Batimastat for 48 hours in AIM-V medium (GibcoBRL). Cells were solubilized at 10^7/ml in lysis buffer (50 mM n-octyl-(-D-glucopyranoside in 50 mM TBS, pH 7.4/1 mM CaCl2/1 mM MgCl2/1 mM PMSF/10 μg/ml leupeptin/10 μg/ml pepstatin) for one hr on ice. Insoluble material was removed by centrifugation. Supernatants were precleared for two hours at 4° C. with Protein A-Agarose (Calbiochem, La Jolla, Calif.). Precleared supernatants (100-150 μl) were incubated overnight at 4° C. with 3 μg of the indicated antibodies. The immune complexes were collected on Protein A-Agarose 15 μl of a 50% slurry) during a two hour incubation at room temperature. Following washes with washing buffer (50 mM Tris, pH 7.4/0.5 M NaCl/0.1% Tween 20), the beads were treated with 4% SDS in 125 mM Tris, pH 6.8/20% glycerol buffer, and boiled. […]

Assay [2] has as its target integrin αvβ3 modified by MT1-MMP, on β3/MT-MCF7 cells (human) (UniProt P06756). Put plainly: flow cytometry, β3/MT-MCF7 cells stained with 5 µg/ml LM609, n=11.
UniProt P06756, sequence (P06756 31-1048 limits assumed, chain 1 of 2): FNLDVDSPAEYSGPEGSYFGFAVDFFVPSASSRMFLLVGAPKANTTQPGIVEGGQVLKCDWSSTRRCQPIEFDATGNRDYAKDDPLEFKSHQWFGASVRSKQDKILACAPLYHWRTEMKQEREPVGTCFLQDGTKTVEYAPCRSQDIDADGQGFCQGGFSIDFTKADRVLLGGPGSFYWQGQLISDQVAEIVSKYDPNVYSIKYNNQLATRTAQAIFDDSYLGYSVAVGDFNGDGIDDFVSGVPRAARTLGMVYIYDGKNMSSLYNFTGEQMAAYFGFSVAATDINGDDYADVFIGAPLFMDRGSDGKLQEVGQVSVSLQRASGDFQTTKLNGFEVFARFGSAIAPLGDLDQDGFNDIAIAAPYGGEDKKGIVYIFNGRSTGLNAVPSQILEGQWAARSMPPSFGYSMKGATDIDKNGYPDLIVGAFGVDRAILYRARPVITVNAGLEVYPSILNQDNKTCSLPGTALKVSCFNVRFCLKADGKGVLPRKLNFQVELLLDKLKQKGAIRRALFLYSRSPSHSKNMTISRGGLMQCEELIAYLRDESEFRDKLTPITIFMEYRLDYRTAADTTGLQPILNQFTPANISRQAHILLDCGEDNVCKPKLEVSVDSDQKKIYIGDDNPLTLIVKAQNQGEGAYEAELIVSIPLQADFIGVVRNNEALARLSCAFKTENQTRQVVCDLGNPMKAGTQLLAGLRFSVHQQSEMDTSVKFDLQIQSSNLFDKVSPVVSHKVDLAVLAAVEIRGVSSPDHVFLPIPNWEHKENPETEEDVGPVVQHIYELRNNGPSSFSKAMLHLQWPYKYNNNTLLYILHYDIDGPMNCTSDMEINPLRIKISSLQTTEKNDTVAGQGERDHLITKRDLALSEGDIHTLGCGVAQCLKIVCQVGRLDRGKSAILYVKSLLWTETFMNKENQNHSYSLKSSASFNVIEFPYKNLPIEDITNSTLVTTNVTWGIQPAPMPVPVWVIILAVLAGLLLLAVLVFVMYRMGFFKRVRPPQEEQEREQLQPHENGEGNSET
UniProt P06756, sequence (chain, as listed by the source limits assumed, chain 2 of 2): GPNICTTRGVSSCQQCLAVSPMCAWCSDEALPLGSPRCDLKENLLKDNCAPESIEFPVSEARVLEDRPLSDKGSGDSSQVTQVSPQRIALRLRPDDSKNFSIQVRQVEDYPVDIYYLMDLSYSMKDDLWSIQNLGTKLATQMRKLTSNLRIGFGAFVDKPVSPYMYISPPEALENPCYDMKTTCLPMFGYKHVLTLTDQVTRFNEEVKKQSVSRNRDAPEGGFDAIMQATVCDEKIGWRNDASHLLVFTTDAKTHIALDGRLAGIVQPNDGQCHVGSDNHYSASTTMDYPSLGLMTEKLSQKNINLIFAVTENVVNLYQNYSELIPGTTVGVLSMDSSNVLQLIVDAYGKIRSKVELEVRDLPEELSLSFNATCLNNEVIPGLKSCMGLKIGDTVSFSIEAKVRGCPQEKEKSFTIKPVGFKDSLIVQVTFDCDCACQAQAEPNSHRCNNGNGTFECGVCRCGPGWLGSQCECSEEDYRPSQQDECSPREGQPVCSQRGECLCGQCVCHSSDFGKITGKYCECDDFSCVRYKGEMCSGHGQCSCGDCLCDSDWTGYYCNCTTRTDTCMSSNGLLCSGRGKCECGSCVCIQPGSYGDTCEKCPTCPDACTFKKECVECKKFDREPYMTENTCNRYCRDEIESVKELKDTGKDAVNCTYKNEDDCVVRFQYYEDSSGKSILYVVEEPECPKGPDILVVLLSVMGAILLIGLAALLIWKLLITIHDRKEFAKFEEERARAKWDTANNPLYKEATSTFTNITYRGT
Assay [3] addresses integrin αvβ3 with the wild type β3 subunit, on β3-MCF7 cells (human) (UniProt P06756). The assay is described as follows: flow cytometry, β3-MCF7 cells stained with 5 µg/ml LM609, n=11.
Assay [4] deals with integrin αvβ3 modified by MT1-MMP, on β3/MT-MCF7 cells (human) (UniProt P06756). Put plainly: cell-based or functional assay.

As for `CNC(=O)[C@H](Cc1ccccc1)NC(=O)[C@H](CC(C)C)[C@H](CSc1cccs1)C(=O)NO` [Batimastat], the “Apparent molecular mass of the β3 integrin subunit from β3/MT-MCF7 cells” value in assay [1] is listed as 95 kDa. For the compound “murine mAb LM609 specific to integrin αvβ3 (antibody)”, the values for the mean fluorescence intensity in assay [2] and in assay [3] were 35.5 and 38.7, respectively.

For the compound “vitronectin (from UniProt P04004 20-478) (ligand)”, the cells migrating to the vitronectin-coated membrane undersurface (Transwell, 48 hours) in assay [4] turned out to be 23300 cells.
